Data on one substance can be found in patent publication US20260034246A1.

The target of assay [1] is Cyno Complement C5 Protein (cynomolgous macaque).
In assay [2] the target is Human Complement C5 Protein (human) (UniProt P01031).
For assay [3], the target named is Mouse Complement C5 Protein (mouse) (UniProt P06684).

For the substance “recombinant C5 inhibitor (C5I) protein (from UniProt Q5YD59 19-168)”, the dissociation constant Kd (in general, the constant that tells how readily two partners part at equilibrium) in assay [1] came to 5.09 nM; in assay [2], 10.2 nM; in assay [3], 6.28 nM.
